Reference: patent publication US20210230570
Substitutions are numbered along the chain they refer to. Names may count otherwise.

B1: FIXa-I251S/R318Y/R338E/E410N (protein)
chain 1: YNSGKLEEFVQGNLERECMEEKCSFEEAREVFENTERTTEFWKQYVDGDQCESNPCLNGGSCKDDINSYECWCPFGFEGKNCELDVTCNIKNGRCEQFCKNSADNKVVCSCTEGYRLAENQKSCEPAVPFPCGRVSVSQTSKLTR
chain 2: VVGGEDAKPGQFPWQVVLNGKVDAFCGGSIVNEKWIVTAAHCVETGVKITVVAGEHNIEETEHTEQKRNVSRIIPHHNYNAAINKYNHDIALLELDEPLVLNSYVTPICIADKEYTNIFLKFGSGYVSGWGRVFHKGYSALVLQYLRVPLVDRATCLESTKFTIYNNMFCAGFHEGGRDSCQGDSGGPHVTEVEGTSFLTGIISWGEECAMKGKYGIYTKVSRYVNWIKNKTKLT
B2: FIXa-R318Y/R338E/N346D/R403E/E410N (protein)
chain 1: B1 chain 1
chain 2: B1 chain 2 with S71I, N166D, R223E
B3: FIXa-Y259F/K265T/Y345T (protein)
chain 1: B1 chain 1
chain 2: B1 chain 2 with S71I, Y79F, K85T, Y138R, E158R, Y165T, N230E
B4: FIXa-D104N/K106S/K247N/N249S/R318Y/R338E/R403E/E410N (protein)
chain 1: B1 chain 1 with D104N, K106S
chain 2: B1 chain 2 with K67N, N69S, S71I, R223E
B5: FIXa-Y155F/K228N/R318Y/R338E/R403E/E410N (protein)
chain 1: B1 chain 1
chain 2: B1 chain 2 with K48N, S71I, R223E
B6: FIXa-D85N/K228N/R318Y/R338E/R403E/E410N (protein)
chain 1: B1 chain 1 with D85N
chain 2: B1 chain 2 with K48N, S71I, R223E
B7: FIXa-K247N/N249S/R318Y/R338E/R403E/E410N (protein)
chain 1: B1 chain 1
chain 2: B1 chain 2 with K67N, N69S, S71I, R223E
B8: FIXa-I251S/R318Y/R338E/R403E/E410N (protein)
chain 1: B1 chain 1
chain 2: B1 chain 2 with R223E
B9: FIXa-Y155F/I251S/R318Y/R338E/R403E/E410N (protein)
chain 1: B1 chain 1
chain 2: B1 chain 2 with R223E
B10: FIXa-K228N/K247N/N249S/R318Y/R338E/R403E/E410N (protein)
chain 1: B1 chain 1
chain 2: B1 chain 2 with K48N, K67N, N69S, S71I, R223E
B11: FIXa-D104N/K106S/I251S/R318Y/R338E/R403E/E410N (protein)
chain 1: B1 chain 1 with D104N, K106S
chain 2: B1 chain 2 with R223E
B12: FIXa-K247N/N249S/R318Y/R338E/E410N (protein)
chain 1: B1 chain 1
chain 2: B1 chain 2 with K67N, N69S, S71I

What follows are proteins tested against Factor X (FX), P00742.
Factor X (FX), P00742, sequence (P00742 whole entry, looked up): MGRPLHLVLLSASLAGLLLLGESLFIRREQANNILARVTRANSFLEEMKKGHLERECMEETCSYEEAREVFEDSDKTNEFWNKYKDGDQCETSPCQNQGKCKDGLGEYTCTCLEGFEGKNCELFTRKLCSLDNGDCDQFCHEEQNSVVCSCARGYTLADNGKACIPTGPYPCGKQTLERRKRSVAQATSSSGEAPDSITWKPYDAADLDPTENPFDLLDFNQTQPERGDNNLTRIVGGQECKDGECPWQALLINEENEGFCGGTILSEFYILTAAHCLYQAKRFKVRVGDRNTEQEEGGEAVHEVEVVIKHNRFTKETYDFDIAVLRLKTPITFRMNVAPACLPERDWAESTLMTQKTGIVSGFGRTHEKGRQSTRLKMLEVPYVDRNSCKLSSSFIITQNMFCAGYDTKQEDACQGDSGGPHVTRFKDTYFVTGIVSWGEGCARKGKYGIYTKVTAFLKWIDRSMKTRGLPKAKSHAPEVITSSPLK

| Protein | kcat/KM [M⁻¹ s⁻¹] | KM (nM); Catalytic activity of FIXa variants (KM) [nM] | kcat of FX activation by FIXa in the Xase complex (FVIIIa, PC/PS vesicles, Ca2+) [s⁻¹] |
| --- | --- | --- | --- |
| B1 | 3.9e+08 | – | – |
| B2 | – | 77.7 | 2.5 |

What follows are proteins tested against plasma purified human AT-III (antithrombin III), in complex with full-length unfractionated heparin (AT-III/UFH).

| Protein | K0.5-mut/K0.5-wt (against Catalyst Biosciences WT FIXa) |
| --- | --- |
| B3 | 0.3 |
| B4 | > 517 |
| B5 | > 517 |
| B1 | 303 |
| B6 | > 517 |
| B7 | 418 |
| B8 | > 517 |
| B9 | > 517 |
| B2 | > 517 |
| B10 | > 517 |
| B11 | > 517 |
| B12 | 78.3 |

The proteins below were run against Factor X, P00742.
Factor X, P00742, sequence (P00742 whole entry, looked up): as above

| Protein | kcat of FX activation by FIXa (Xase complex with FVIIIa, PC/PS vesicles, Ca2+) [s⁻¹] |
| --- | --- |
| B3 | 1.7 |
| B4 | 5.2 |
| B5 | 9.7 |
| B1 | 6.2 |
| B6 | 6 |
| B7 | 5.8 |
| B8 | 4.8 |
| B9 | 7.2 |
| B10 | 6.1 |
| B11 | 5.5 |
| B12 | 3.8 |
